Results on seven molecules are retold here after patent CN116693676A.

For experiment [1], the target named is 肺炎支原体天然抗原(购自Microbix) (Mycoplasma pneumoniae). As to the kind of experiment: indirect ELISA, antigen coated at 2 ug/ml, antibody 15 ng/ml. (An ELISA detects its analyte on a solid surface through an enzyme-linked reagent.)
Experiment [2] has the same target. As to the kind of experiment: indirect ELISA, antigen coated at 2 ug/ml, antibody 1.88 ng/ml.
For experiment [3] the target is unchanged. The experiment can be described thus: indirect ELISA, antigen coated at 2 ug/ml, antibody 0.94 ng/ml.
Experiment [4] has the same target. The experiment can be described thus: indirect ELISA, antigen coated at 2 ug/ml, antibody 0 ng/ml (blank).
Experiment [5] shares this target. The experiment can be described thus: indirect ELISA, antigen coated at 2 ug/ml, antibody 7.5 ng/ml.
The target is the same in experiment [6]. The experiment can be described thus: indirect ELISA, antigen coated at 2 ug/ml, antibody 3.75 ng/ml.

Substitutions are numbered along the chain they refer to.

On to 对照 (antibody), for which the OD450 (参考630nm) came to 1.32 OD in experiment [1]; 0.212 OD in experiment [2]; 0.118 OD in experiment [3]; 0.015 OD in experiment [4]; 0.629 OD in experiment [5]; 0.403 OD in experiment [6].

B1: Anti-MP-22A9mut1 (antibody, mouse IgG1, kappa, V domains shown)
VH: QAYLQQSGAELVRSGASVKMSCKASGYTFTTYNMHWVKQTPGQGLEWIGYVHPGYGITYYSQKFKGKATLTADTSSSTAYMILSSLTSEDSAVYFCTRSYYGYSYWFFDVWGAGTTVTVSS
VL: NIVMTQSPKSVSMSVGERVTLNCKASENVGSYVAWYQQKPDRSPKLLIHGASNRYTGVPDRFTGSGSTTDFTLTISSVQAEDLADYHCGQTYNYPYTFGGGTKLEIKR
B1: the OD450 (参考630nm) in experiment [1] came to 1.92 OD; in experiment [2], 0.391 OD; in experiment [3], 0.205 OD; in experiment [4] it was 0.013 OD; in experiment [5], 1.39 OD; in experiment [6], 0.619 OD.

B2: Anti-MP-22A9mut4 (antibody, mouse IgG1, kappa, V domains shown)
VH: B1 VH with I82L, L86I
VL: B1 VL
B2: the OD450 (参考630nm) is 1.98 OD in experiment [1]; 0.401 OD in experiment [2]; 0.207 OD in experiment [3]; 0.012 OD in experiment [4]; 1.47 OD in experiment [5]; 0.758 OD in experiment [6].

B3: Anti-MP-22A9mut3 (antibody, mouse IgG1, kappa, V domains shown)
VH: B1 VH with L70I, I82L
VL: B1 VL
In the case of B3, the OD450 (参考630nm) turned out to be 2.16 OD in experiment [1]; 0.512 OD in experiment [2]; 0.359 OD in experiment [3]; 0.016 OD in experiment [4]; 1.67 OD in experiment [5]; 0.906 OD in experiment [6].

B4: Anti-MP-22A9mut5 (antibody, mouse IgG1, kappa, V domains shown)
VH: B1 VH with I82L, L86I
VL: B1 VL with L73I
Take B4: the OD450 (参考630nm) came out at 2.03 OD in experiment [1]; 0.536 OD in experiment [2]; 0.315 OD in experiment [3]; 0.011 OD in experiment [4]; 1.68 OD in experiment [5]; 0.814 OD in experiment [6].

B5: Anti-MP-22A9mut6 (antibody, mouse IgG1, kappa, V domains shown)
VH: B1 VH with I82L, L86I
VL: B1 VL with I75L
B5: the OD450 (参考630nm) in experiment [1] was found to be 2.01 OD; in experiment [2], 0.339 OD; in experiment [3], 0.207 OD; in experiment [4] it was 0.011 OD; in experiment [5] it was 1.42 OD; in experiment [6], 0.627 OD.

B6: Anti-MP-22A9mut2 (antibody, mouse IgG1, kappa, V domains shown)
VH: B1 VH with I82L
VL: B1 VL
Regarding B6, the OD450 (参考630nm) in experiment [1] was 2.23 OD; in experiment [2], 0.534 OD; in experiment [3] it was 0.386 OD; in experiment [4], 0.021 OD; in experiment [5] it was 1.6 OD; in experiment [6], 0.899 OD.
